Measured values reported in PMC11362169, “Interdomain-linkers control conformational transitions in the SLC23 elevator transporter UraA” (Nature Communications, 2024).

Tests used:
UraA = molecular target: T1, UraA (Escherichia coli, UniProt P0AGM7); test: differential scanning fluorimetry (CPM dye); format: binding; settings: 20 mM Hepes pH 7.5, 150 mM NaCl, 0.2% DM
T1 construct: full-length ORF, expressed in E. coli MC1061 from pBXC3GH (tag removed with HRV-3C protease), decylmaltoside-solubilized; C-terminal biotinylated AVI-tag for SPA; WT and G112P monomeric, P330G dimeric, G320P both fractions

uracil = test: scintillation proximity assay (homologous competition with 3H-uracil)
[1] = molecular target: T2, wild type UraA (E. coli uracil permease) (E. coli, UniProt P0AGM7); test: differential scanning fluorimetry; UraA variants 0.1 mg/mL in 20 mM Hepes pH 7.5, 150 mM NaCl, 0.2% DM, without uracil, in absence and presence of Sy45; CPM dye, 25 to 90 °C at 2 °C/min; settings: both partners purified
T2 construct: uracil permease UraA, E. coli; open reading frame amplified from genomic DNA of E. coli MC1061; Membrane protein in 0.2% decylmaltoside; elutes as monomers and dimers; A few residues of the FX cloning sites and of the 3C site probably remain after cleavage (surmised); also called UraA(WT); source: E. coli MC1061 (pBXC3GH), purified (decylmaltoside-solubilised, Ni-NTA, eluted with HRV-3C protease, …)

## O=c1cc[nH]c(=O)[nH]1 [uracil]
UraA
  Tm with 1 mM uracil (apo Tm 54.2 ± 0.2 °C): 64.1 ± 0.1 °C

## wild type UraA (E. coli uracil permease) (from UniProt P0AGM7) G320P
uracil; absence of Sy45
  Kd: 35 nM
uracil; presence of Sy45 (panel titled UraA(G320P)-Sy45)
  Kd: 144 nM

## wild type UraA (E. coli uracil permease) (from UniProt P0AGM7) P330G
uracil; absence of Sy45
  Kd: 7 nM

B1: sybody Sy45 (synthetic nanobody) (VHH)
VHH: QVQLVESGGGSVQAGGSLRLSCAASGNIAYIHYLGWFRQAPGKEREGVAALSTTLGNTYYADSVKGRFTVSLDNAKNTVYLQMNSLKPEDTALYYCAAAYFGYSSPLAHERYMYWGQGTQVTVSA
notes: sybody with a convex paratope, selected from a synthetic library against wild type UraA; also called synthetic single-domain antibody; conformational probe
[1]
  thermostabilization (increase of melting temperature): 16.7 °C
